{
  "source": "patent US20240116985A1",
  "about": "(published 2024)",
  "binders": {"B1": {"name": "I-214 (peptide)", "peptide": "Ac-[αAllylPro]DA[B5][4Pal]EAAFV[S8]FWQ-NH2", "modifications": "staple 1-4, 4-11", "notes": "Stapled (stitched) peptide composition; also called Ac-PL3-Asp-Ala-B5-4pyrA-Glu-Ala-Ala-Phe-Val-S8-Phe-Trp-Gln-NH2"}, "B2": {"name": "I-229 (peptide)", "peptide": "Ac-[αAllylPro]DA[B5(4)][2Pal]EAAFV[S8]FWQ-NH2", "modifications": "staple 1-4, 4-11; also: separate staple isomer composition", "notes": "Stapled peptide composition; also called Ac-PL3-Asp-Ala-B5-2pyrA-Glu-Ala-Ala-Phe-Val-S8-Phe-Trp-Gln-NH2"}, "B3": {"name": "I-230 (peptide)", "peptide": "Ac-[αAllylPro]DA[B5(4)][2Pal]EAAFV[S8]FWQ-NH2", "modifications": "staple 1-4, 4-11; also: separate staple isomer composition", "notes": "as for B2"}, "B4": {"name": "I-234 (peptide)", "peptide": "Ac-[αAllylPro]DA[B5(3)]D[1Nal]AAFV[S8]FWQ-NH2", "modifications": "staple 1-4, 4-11", "notes": "Stapled peptide composition; also called Ac-PL3-Asp-Ala-B5-Asp-1NapA-Ala-Ala-Phe-Val-S8-Phe-Trp-Gln-NH2"}, "B5": {"name": "I-224 (peptide)", "peptide": "Ac-FDA[R8]DDAAFT[PyrS]FWQ-NH2", "modifications": "staple 4-11", "notes": "Stapled peptide composition; also called Ac-Phe-Asp-Ala-R8-Asp-Asp-Ala-Ala-Phe-Thr-PyrS-Phe-Trp-Gln-NH2"}, "B6": {"name": "I-238 (peptide)", "peptide": "Ac-[αAllylPro]DA[B5(3)]DDAA[Phe(3-CF3)]V[S8]FWQ-NH2", "modifications": "staple 1-4, 4-11", "notes": "Stapled peptide composition; also called Ac-PL3-Asp-Ala-B5-Asp-Asp-Ala-Ala-3F3MeF-Val-S8-Phe-Trp-Gln-NH2"}, "B7": {"name": "I-232 (peptide)", "peptide": "Ac-[αAllylPro]DA[B5(4)]D[2Nal]AAFV[S8]FWQ-NH2", "modifications": "staple 1-4, 4-11", "notes": "Stapled peptide composition; also called Ac-PL3-Asp-Ala-B5-Asp-2NapA-Ala-Ala-Phe-Val-S8-Phe-Trp-Gln-NH2"}, "B8": {"name": "I-237 (peptide)", "peptide": "Ac-[αAllylPro]DA[B5(3)]DDAA[Phe(3-CF3)]V[S8]FWQ-NH2", "modifications": "staple 1-4, 4-11", "notes": "as for B6"}, "B9": {"name": "I-231 (peptide)", "peptide": "Ac-[αAllylPro]DA[B5(4)]D[Bta]AAFV[S8]FWQ-NH2", "modifications": "staple 1-4, 4-11", "notes": "Stapled peptide composition; also called Ac-PL3-Asp-Ala-B5-Asp-BztA-Ala-Ala-Phe-Val-S8-Phe-Trp-Gln-NH2"}, "B10": {"name": "I-235 (peptide)", "peptide": "Ac-[αAllylPro]DA[B5(3)]D[Bip]AAFV[S8]FWQ-NH2", "modifications": "staple 1-4, 4-11", "notes": "Stapled peptide composition; also called Ac-PL3-Asp-Ala-B5-Asp-Bip-Ala-Ala-Phe-Val-S8-Phe-Trp-Gln-NH2"}, "B11": {"name": "I-223 (peptide)", "peptide": "Ac-FDA[R8]DDAAFT[PyrS″]FWQ-NH2", "modifications": "staple 4-11", "notes": "as for B5"}, "B12": {"name": "I-222 (peptide)", "peptide": "Ac-FDA[R8]DDAAFT[PyrS″]FWQ-NH2", "modifications": "staple 4-11", "notes": "as for B5"}, "B13": {"name": "I-236 (peptide)", "peptide": "Ac-[αAllylPro]DA[B5(3)]DDAA[Phe(3-CF3)]V[S8]FWQ-NH2", "modifications": "staple 1-4, 4-11", "notes": "as for B6"}, "B14": {"name": "I-245 (peptide)", "peptide": "Ac-[αAllylPro]DA[B5(4)]D[Phe(3-CF3)]AAFV[S8]FWQ-NH2", "modifications": "staple 1-4, 4-11", "notes": "Stapled peptide composition; also called Ac-PL3-Asp-Ala-B5-Asp-3F3MeF-Ala-Ala-Phe-Val-S8-Phe-Trp-Gln-NH2"}, "B15": {"name": "I-246 (peptide)", "peptide": "Ac-[αAllylPro]DA[B5(4)]D[Phe(4-CF3)]AAFV[S8]FWQ-NH2", "modifications": "staple 1-4, 4-11", "notes": "Stapled peptide composition; also called Ac-PL3-Asp-Ala-B5-Asp-4F3MeF-Ala-Ala-Phe-Val-S8-Phe-Trp-Gln-NH2"}, "B16": {"name": "I-233 (peptide)", "peptide": "Ac-[αAllylPro]DA[B5(3)]DWAAFV[S8]FWQ-NH2", "modifications": "staple 1-4, 4-11", "notes": "Stapled peptide composition; also called Ac-PL3-Asp-Ala-B5-Asp-Trp-Ala-Ala-Phe-Val-S8-Phe-Trp-Gln-NH2"}, "B17": {"name": "I-247 (peptide)", "peptide": "Ac-[αAllylPro]DA[B5(4)]D[Phe(4-CF3)]AAFV[S8]FWQ-NH2", "modifications": "staple 1-4, 4-11", "notes": "as for B15"}, "B18": {"name": "I-244 (peptide)", "peptide": "Ac-[αAllylPro]DA[B5(5)]D[Phe(3-CF3)]AAFV[S8]FWQ-NH2", "modifications": "staple 1-4, 4-11", "notes": "as for B14"}, "B19": {"name": "I-216 (peptide)", "peptide": "Ac-[αAllylPro]DA[B5(4)]D[d(αMeL)]AAFV[S8]FWQ-NH2", "modifications": "staple 1-4, 4-11", "notes": "Stapled peptide composition; also called Ac-PL3-Asp-Ala-B5-Asp-DaMeL-Ala-Ala-Phe-Val-S8-Phe-Trp-Gln-NH2"}, "B20": {"name": "I-221 (peptide)", "peptide": "Ac-FDA[R8]DDAAFT[PyrS]FWQ-NH2", "modifications": "staple 4-11", "notes": "as for B5"}},
  "note": "Starred links: 1 amine or outer side, 2 acyl side, 3 side chain; linkers in the order of their positions; H or OH if unused. Positions of bridges follow the written chain, without caps; N, C: chain ends. Non-standard residues stand in square brackets, D forms with d. Primed or numbered codes have the meaning given here. B5(4) = 2,2-bis(4-pentenyl)glycine = 2-amino-2-(pent-4-en-1-yl)hept-6-enoic acid (stitching residue), C=CCCCC(CCCC=C)(N[*:1])C(=O)[*:2]; B5(5) = 2,2-bis(4-pentenyl)glycine, 2-amino-2-(pent-4-en-1-yl)hept-6-enoic acid (stitching residue), C=CCCCC(CCCC=C)(N[*:1])C(=O)[*:2]; PyrS″ = (S)-1-((allyloxy)carbonyl)-3-aminopyrrolidine-3-carboxylic acid (stapling residue), C=CCOC(=O)N1CC[C@@](N[*:1])(C(=O)[*:2])C1; PyrS = (S)-1-((allyloxy)carbonyl)-3-aminopyrrolidine-3-carboxylic acid, C=CCOC(=O)N1CC[C@@](N[*:1])(C(=O)[*:2])C1; B5(3) = 2,2-bis(4-pentenyl)glycine (stitching residue), C=CCCCC(CCCC=C)(N[*:1])C(=O)[*:2]; B5 = 2-amino-2-(pent-4-en-1-yl)hept-6-enoic acid, C=CCCCC(CCCC=C)(N[*:1])C(=O)[*:2]; Phe(3-CF3) = N[C@@H](Cc1cccc(C(F)(F)F)c1)C(=O)O; Phe(4-CF3) = N[C@@H](Cc1ccc(C(F)(F)F)cc1)C(=O)O; Bip = N[C@@H](Cc1ccc(-c2ccccc2)cc1)C(=O)O; 1Nal = N[C@@H](Cc1cccc2ccccc12)C(=O)O; 2Nal = N[C@@H](Cc1ccc2ccccc2c1)C(=O)O; Bta = N[C@@H](Cc1csc2ccccc12)C(=O)O; αAllylPro = C=CC[C@@]1(C(=O)O)CCCN1; d(αMeL) = CC(C)C[C@@](C)(N)C(=O)O; 2Pal = N[C@@H](Cc1ccccn1)C(=O)O; 4Pal = N[C@@H](Cc1ccncc1)C(=O)O; R8 = C=CCCCCCC[C@@](C)(N)C(=O)O; S8 = C=CCCCCCC[C@](C)(N)C(=O)O",
  "data": [
    {"biological_target": "T1, full-length beta-Catenin (Uniprot ID P35222) (Homo sapiens (Human), UniProt P35222 2-781)", "T1 construct": "The AlphaScreen assay used a Histidine (Nickel Chelate) detection kit, so a His tag is likely, but no tag is described; also called B-Catenin; bCat", "T1 sequence": "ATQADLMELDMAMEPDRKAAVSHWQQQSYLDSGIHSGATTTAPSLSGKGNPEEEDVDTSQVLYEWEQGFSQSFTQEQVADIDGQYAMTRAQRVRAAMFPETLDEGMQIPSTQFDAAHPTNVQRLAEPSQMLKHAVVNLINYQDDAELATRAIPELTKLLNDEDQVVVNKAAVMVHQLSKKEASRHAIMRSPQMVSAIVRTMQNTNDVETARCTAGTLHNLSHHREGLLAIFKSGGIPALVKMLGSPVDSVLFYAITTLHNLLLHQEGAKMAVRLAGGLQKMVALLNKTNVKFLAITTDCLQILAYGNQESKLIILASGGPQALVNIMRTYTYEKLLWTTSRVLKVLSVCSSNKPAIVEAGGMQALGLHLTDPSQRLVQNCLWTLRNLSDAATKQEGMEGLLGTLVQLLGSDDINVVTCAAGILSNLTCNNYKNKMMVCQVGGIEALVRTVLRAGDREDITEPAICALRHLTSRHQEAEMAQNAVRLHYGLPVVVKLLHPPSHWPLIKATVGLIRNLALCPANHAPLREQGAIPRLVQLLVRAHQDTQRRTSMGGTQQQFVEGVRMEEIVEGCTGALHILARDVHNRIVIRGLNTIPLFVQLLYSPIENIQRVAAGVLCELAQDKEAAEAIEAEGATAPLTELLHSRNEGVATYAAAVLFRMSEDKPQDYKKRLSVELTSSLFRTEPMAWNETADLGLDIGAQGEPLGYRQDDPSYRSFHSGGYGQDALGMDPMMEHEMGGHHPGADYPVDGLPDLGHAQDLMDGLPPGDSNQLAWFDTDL", "assay": "AlphaScreen competition: full-length beta-catenin + biotin-TCF4(10-53) probe, peptide titrated", "description": "Equal volume of the titrated peptide was added to the plate and incubated for 15 minutes at 20° C. Then 4 uL of donor and 4 uL acceptor beads at 10 ug/mL were added to the plate, for a 16 uL reaction pool and protected from light for 60 minutes at 20° C. prior to read. Reads were performed on a CLARIOstar plate reader (BMG Labtech) in duplicate, and data were fitted to a 1:1 binding model with hill slope using an in-house script. All provided concentrations are final concentrations.", "units": {"EC50": "µM"}, "values": [
      {"binder": "B1", "EC50": 7.21},
      {"binder": "B2", "EC50": 5.81},
      {"binder": "B3", "EC50": 4.61},
      {"binder": "B4", "EC50": 7.53},
      {"binder": "B5", "EC50": 4.12},
      {"binder": "B6", "EC50": 0.267},
      {"binder": "B7", "EC50": 7.64},
      {"binder": "B8", "EC50": 0.384},
      {"binder": "B9", "EC50": 6.53},
      {"binder": "B10", "EC50": 7.34},
      {"binder": "B11", "EC50": 4.12},
      {"binder": "B12", "EC50": 6.58},
      {"binder": "B13", "EC50": 0.384},
      {"binder": "B14", "EC50": 2.96},
      {"binder": "B15", "EC50": 3.97},
      {"binder": "B16", "EC50": 5.9},
      {"binder": "B17", "EC50": 3.97},
      {"binder": "B18", "EC50": 2.96},
      {"binder": "B19", "EC50": "≥ 10"},
      {"binder": "B20", "EC50": 6.58}
    ]}
  ]
}
